# Test results published in publication doi:10.1101/2020.06.12.148387.
# Target: SARS-CoV-2 Spike ectodomain (pre-fusion, with proline mutations) (SARS-CoV-2) (UniProt P0DTC2)
substance,measurement,value
EY6A IgG (antibody),"plaque reduction neutralisation test (Oxford), SARS-CoV-2, ND50",30 µg/mL
